Measured values taken from US20250171562A1 (ALK ABELL, published 2025).

Experiments:
recombinant human IgE = biological target: T1, recombinant human IgE (human, UniProt P01854-1 1-428); test: IgE-FcεRIα displacement ELISA
T1 construct: made in-house (ALK); preloaded on immobilised FcεRIα in the displacement ELISA
In short: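 sdAbs at pM–μM were incubated 1 h on preformed complexes of 13 ng/ml recombinant human IgE with avi-tag-biotinylated human FcεRIα captured on streptavidin.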

IgE-Fc Cε3-4 [1] = biological target: T2, IgE-Fc Cε3-4 (human, UniProt P01854-1 209-428, limits assumed); test: ELISA, immobilised IgE-Fc Cε3-4
T2 construct: domain: Cε3-Cε4; coated at 2 µg/mL in the ELISA; also called IgE-Fc Cε3-Cε4
Description: (§1) SdAb monomers of interest (table 1) and identified in example 2 were amplified from pNT plasmid by PCR and recloned in pET22b plasmid by SLICE cloning reaction. Thereby, a pelB signal sequence and a C-terminal his/HA tag were added to the sdAbs allowing for secretion into periplasmic space and subsequent purification and detection. SdAbs were expressed in E. coli Rosetta (DE3) cells using 2YT media. Expression was induced in early exponential phase with 0.5 mM IPTG and carried overnight at 20° C.-25° C. Purification of sdAbs from supernatant or supernatant+periplasmic extract was performed by IMAC using HisTrap excel column (Cytiva) as first step and by SEC with a Hiload 16-600 Superdex® 75 pg (Cytiva) column as second step. Size and purity of each sdAbs were evaluated on a 15% acrylamide SDS-PAGE. Then, immunoreactivity of sdAbs against immobilized IgE-Fc Cε2-4 and IgE-Fc Cε3-4 was analysed by ELISA. IgE-Fc were coated at 2 μg/mL overnight in a Nunc MaxiSorp plate (ThermoFisher). After blocking sdAbs were added at a 1:10 dilution in TBS and incubated 3h at room temperature. Detection was performed using a mouse anti-HA antibody (ThermoFisher) and an anti-mouse IgG AP conjugated (Sigma Aldrich).

biotinylated IgE Fc = biological target: T3, biotinylated IgE Fc (UniProt P01854-1 104-428, biotinylated); test: BLI (Octet), IgE Fc on sensor, 1:1 fit
T3 construct: also called IgE Fc (made in-house ALK, Denmark)
Description: The biotinylated IgE Fc (made in-house ALK, Denmark) was immobilised on SAX (High precision streptavidin) sensors (FortéBIO) to max 1 nm. The association (240 s) and dissociation (600 s) were measured for the analytes in a serial dilution (from 10 nM to 0.37 nM). Data were subtracted to blank reference sensors exposed to the same serial analyte dilutions, aligned, and analysed in the Octet Data Analysis HT 11.1 Software (FortéBIO) using a 1:1 fitting model.

IgE-Fc Cε2-4 = biological target: T4, IgE-Fc Cε2-4 (human, UniProt P01854-1 104-428, limits assumed); test: ELISA, immobilised IgE-Fc
T4 construct: domain: Cε2-Cε4; coated at 2 µg/mL in the ELISA; also called IgE-Fc Cε2-Cε4
Description: as §1

IgE-Fc Cε3-4 [2] = biological target: T2, IgE-Fc Cε3-4; test: ELISA, immobilised IgE-Fc
Description: as §1

T3 sequence (P01854 other isoform, or with tags, fused parts or gaps): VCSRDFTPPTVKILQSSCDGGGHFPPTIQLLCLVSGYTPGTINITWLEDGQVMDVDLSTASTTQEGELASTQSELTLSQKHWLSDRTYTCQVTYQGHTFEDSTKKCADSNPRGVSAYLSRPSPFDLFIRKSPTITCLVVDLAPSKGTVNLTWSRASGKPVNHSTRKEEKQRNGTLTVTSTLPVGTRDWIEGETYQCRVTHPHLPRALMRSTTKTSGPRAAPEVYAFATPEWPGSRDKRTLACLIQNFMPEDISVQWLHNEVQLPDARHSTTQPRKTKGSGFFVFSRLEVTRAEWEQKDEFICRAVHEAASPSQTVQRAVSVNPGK
T2 sequence (P01854 other isoform, or with tags, fused parts or gaps limits assumed): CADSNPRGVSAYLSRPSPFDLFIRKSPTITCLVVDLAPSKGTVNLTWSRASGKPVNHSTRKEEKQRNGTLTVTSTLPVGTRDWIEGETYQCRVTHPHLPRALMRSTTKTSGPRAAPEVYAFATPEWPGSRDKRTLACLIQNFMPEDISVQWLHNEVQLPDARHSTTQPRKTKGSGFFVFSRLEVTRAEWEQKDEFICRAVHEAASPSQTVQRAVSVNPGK
T1 sequence (P01854 other isoform, or with tags, fused parts or gaps): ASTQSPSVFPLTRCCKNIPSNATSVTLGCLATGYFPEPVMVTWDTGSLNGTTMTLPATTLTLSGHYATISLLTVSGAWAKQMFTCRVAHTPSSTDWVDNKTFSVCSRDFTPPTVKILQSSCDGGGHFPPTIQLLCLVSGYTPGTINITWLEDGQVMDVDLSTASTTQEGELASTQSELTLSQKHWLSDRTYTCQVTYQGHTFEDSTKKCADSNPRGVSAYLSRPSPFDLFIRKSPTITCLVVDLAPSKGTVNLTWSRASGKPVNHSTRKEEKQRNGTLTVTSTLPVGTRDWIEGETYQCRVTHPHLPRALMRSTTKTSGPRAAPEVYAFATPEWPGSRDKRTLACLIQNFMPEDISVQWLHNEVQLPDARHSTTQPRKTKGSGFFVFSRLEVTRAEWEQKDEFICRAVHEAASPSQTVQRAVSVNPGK

Max effect (recombinant human IgE) [%]	binding result (IgE-Fc Cε3-4 [1])	Kd (biotinylated IgE Fc) [nM]	koff (biotinylated IgE Fc) [s⁻¹]	kon (biotinylated IgE Fc) [M⁻¹ s⁻¹]	EC50 (recombinant human IgE) [nM]	binding result (IgE-Fc Cε2-4)	binding result (IgE-Fc Cε3-4 [2])	Binder
< 20	no binding	0.11	7.8e-05	700000	–	–	–	sdAb B2 (VHH) VHH: QVQLVESGGGLVQAGGSLRLSCAVFGSTFSNNVADWYRQAPGKQRELVARISASGATREYGDSVKGRFTISRDDAKNTMYLQMNNLKPEDTAVYRCHKIEWEDLSRKDYWGQGTQVTVS
> 95	–	–	–	–	10	–	–	A1D2(G4S)4 (bispecific antibody) EVQLLESGGGLVQPGGSLRLSCAASGFTFGNYDMAWVRQAPGKRPEWVSSIDTGGDITHYADSVKGRFTISRDNAKNTLYLQMNSLRPEDTAVYWCATDEEYALGPNEFDYYGQGTLVTVSGGGGSGGGGSGGGGSGGGGSDVQLQESGGGLVEAGGSLRLSCVASGRTFSGWSMGWFRQAPGKEREFVAAISWVGSWIGGTVYSNSVKGRFTISRDNARTTVYLQMNSLKPEDTAVYFCAAANSETPRIFASEYDYWGQGTQVTVS
0	no binding	–	–	–	–	–	–	sdAb F3 (VHH) VHH: DVQLQESGGGLVQAGGSLKLSCAASRGSLSRWDVAWFRQAPGKERSFVTRISWSGTTSYYADAVKGRFAISRDNAKNTVYLQMNSLKPEDTAVYYCAVALYGNRGYYDVNAHSYWGQGTQVTVS
0	no binding	0.28	0.00025	880000	–	–	–	sdAb B3 (VHH) VHH: DVQLQESGGGLVQAGGSLRLSCAASGFIFRLAGMSWVRQAPGKGFEWVSGITMDGSTTNYADSVKGRFTISRDNSKNRLYLQMNSLKPEDTAVYYCARGAKGGYNDPRGQGTQVTVS
0	no binding	–	–	–	–	–	–	sdAb E3 (VHH) VHH: DVQLQESGGGLVQAGGSLRLACAASGRTLSSYVVSWFRQAPGKERKFVAAITWSGLSTTYLDSVQGRFTISRDNTKDTVYLQMNSLKPQDTAIYYCAAGPNIPSILRTRESEYAYWGQGTQVTVS
65	no binding	65	0.049	760000	200	–	–	sdAb B1 (VHH) VHH: QVQLQESGGGLVQTGGSLRLSCAVHGRTFSNTGMGWFRQAPGNERQFVAIISPSGTSTYYADSVKGRFTISRDPAKNTVYLQMNSLKMDDTAVYYCAASYGSNWSTLRHQRRNEYDAWGQGTQVAVS
> 95	–	–	–	–	8	–	–	D2A1(G4S)4 (bispecific antibody) DVQLQESGGGLVEAGGSLRLSCVASGRTFSGWSMGWFRQAPGKEREFVAAISWVGSWIGGTVYSNSVKGRFTISRDNARTTVYLQMNSLKPEDTAVYFCAAANSETPRIFASEYDYWGQGTQVTVSGGGGSGGGGSGGGGSGGGGSEVQLLESGGGLVQPGGSLRLSCAASGFTFGNYDMAWVRQAPGKRPEWVSSIDTGGDITHYADSVKGRFTISRDNAKNTLYLQMNSLRPEDTAVYWCATDEEYALGPNEFDYYGQGTLVTVS
90	–	–	–	–	250	–	–	A1A1(G4S)4 (VHH, monospecific, bivalent control of two A1 linked by (G4S)4) EVQLLESGGGLVQPGGSLRLSCAASGFTFGNYDMAWVRQAPGKRPEWVSSIDTGGDITHYADSVKGRFTISRDNAKNTLYLQMNSLRPEDTAVYWCATDEEYALGPNEFDYYGQGTLVTVSGGGGSGGGGSGGGGSGGGGSEVQLLESGGGLVQPGGSLRLSCAASGFTFGNYDMAWVRQAPGKRPEWVSSIDTGGDITHYADSVKGRFTISRDNAKNTLYLQMNSLRPEDTAVYWCATDEEYALGPNEFDYYGQGTLVTVS
0	no binding	3.2	0.00045	140000	–	–	–	sdAb D1 (VHH) VHH: DVQLQESGGGLVQAGGSLRLSCAASGLTFSRCDMGWFRQAPGKEREFVARISANGASTHYADFVKGRFTISRDNAKNTVYLQMNYLKPEDTAVYICAAARVPVTWQLYDYWGQGTQVTVS
–	–	–	–	–	–	binds	binds	sdAb G1 (VHH) VHH: DVQLQESGGGLVQAGGSLRLSCAASGFIVSDNVMSWYRQAPGKQRDMVATIMLNGDTAHADSVKGRFTISRDHAKNTVYLQMNSLKPEDTAVYYCNARDSMLEPGRGAWGQGTLVTVS
80	–	–	–	–	190	–	–	A1B3(G4S)4 (bispecific antibody) EVQLLESGGGLVQPGGSLRLSCAASGFTFGNYDMAWVRQAPGKRPEWVSSIDTGGDITHYADSVKGRFTISRDNAKNTLYLQMNSLRPEDTAVYWCATDEEYALGPNEFDYYGQGTLVTVSGGGGSGGGGSGGGGSGGGGSDVQLQESGGGLVQAGGSLRLSCAASGFIFRLAGMSWVRQAPGKGFEWVSGITMDGSTTNYADSVKGRFTISRDNSKNRLYLQMNSLKPEDTAVYYCARGAKGGYNDPRGQGTQVTVS
0	no binding	–	–	–	–	–	–	sdAb F1 (VHH) VHH: DVQLQESGGGLVQAGGSLKLSCAASGGSLSRYDMGWFRQAPGKEREFVARISWSGTTKYYADAVKGRFAISRDNAKNTVYLQMNSLKPEDTAVYYCAAAFYGNRGYYDVNAYTSSGQGTQVTVS
< 20	no binding	–	–	–	–	–	–	sdAb F4 (VHH) VHH: DVQLQESGGGLVQAGGSLRLSCAVSGLSFSSMGWFRQPPGKEREFVAAISLYSGSTYYADSVKGRFTISSDNAKSTVYLQMNSLKPEDAAVYFCAADRQRTWSTFYASRQATYNYWGQGTQVTVTS
0	no binding	–	–	–	–	–	–	sdAb E2 (VHH) VHH: DVQLQESGGGLVQAGGSLRLSCAASGRTISRYAVGWFRRPPAKEREFIGINWSGGSTTYADSAEGRFIISRDNAKNTVYLQMNSLKPEDTAVYYCAVPSVLVQGGISNPSQYDYWGQGTQVTVS
35	no binding	–	–	–	–	–	–	sdAb F5 (VHH) VHH: DVQLQESGGGLVQPGGSLRLSCAASGSIFSIDIMGWYRQAPGKQRELVATMPEGNYINYADSVKGRLTLSRDKGKNTVYLQLNSLKPEDTAVYYCYGFGVREGRGNVYWGQGTQVTVS
> 95	–	–	–	–	4000	–	–	F1A1(G4S)4 (bispecific antibody) DVQLQESGGGLVQAGGSLKLSCAASGGSLSRYDMGWFRQAPGKEREFVARISWSGTTKYYADAVKGRFAISRDNAKNTVYLQMNSLKPEDTAVYYCAAAFYGNRGYYDVNAYTSSGQGTQVTVSGGGGSGGGGSGGGGSGGGGSEVQLLESGGGLVQPGGSLRLSCAASGFTFGNYDMAWVRQAPGKRPEWVSSIDTGGDITHYADSVKGRFTISRDNAKNTLYLQMNSLRPEDTAVYWCATDEEYALGPNEFDYYGQGTLVTVS
50	no binding	81	0.02	240000	10000	–	–	sdAb D2 (VHH) VHH: DVQLQESGGGLVEAGGSLRLSCVASGRTFSGWSMGWFRQAPGKEREFVAAISWVGSWIGGTVYSNSVKGRFTISRDNARTTVYLQMNSLKPEDTAVYFCAAANSETPRIFASEYDYWGQGTQVTVS
–	no binding	–	–	–	–	binds	–	sdAb E4 (VHH) VHH: DVQLQESGGGLVQPGGSLRLSCAASGFRFSNYAMRWYRQAPGKEREFVARISSTGFITRYTASVRDRFTISRDNDKNMMYLQLNKLTPQDTAHYYCNAESTDYWGQGTQVTVS
< 20	no binding	–	–	–	–	–	–	sdAb E1 (VHH) VHH: DVQLQESGGGLVQAGGSLRLSCLASGRTFTTTSGYNMGWFRQAPGKEREFVAGIKWVSGSNRAYAESVKGRFTISRDNAKNTVYLQMNSLKPEDTAVYYCAAATGQSYVPIREYEYVYWGQGTQVTVS
